B1: TRIM55 (parent)
chain: FQASNPYLPTRGGTTMASGGRFRC
B2: SOAT1 (parent)
chain: PSNGRIDIKQLIAKKIKLTAEAEE

Variants of: B1
Test: protein stability index of a GFP-peptide fusion (GPS, HEK-293T) (PSI 1-6); higher = more stable
Conditions: c terminus: a fixed tail appended
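Also: lentivirally expressed fusions sorted by FACS into six bins by GFP to DsRed ratio, PSI derived from sequencing read proportions per bin multiplied by bin number.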

Protein stability index of substitutions, site by site:
A3: S 2.27 | I 1.76 | C 1.32 | P 2.02 | R 2.46 | E 2.55 | N 2.18 | F 2.69 | M 1.83
R23: Q 1.71 | F 1.51 | M 1.61 | E 1.99 | V 1.88 | N 1.48
R21: T 1.04 | N 2.49 | D 1.81 | F 1.71 | S 1.75 | V 1.42 | L 2.42 | G 1.53
T10: V 2.16 | R 1.56 | I 1.81 | P 2.37 | S 1.97 | Y 1.83 | M 3.72
M16: R 1.86 | L 1.79 | V 1.27 | Q 1.57 | P 2.92 | T 1.99 | I 2.83 | D 1.65
F22: H 2.29 | G 1.43 | N 2.14 | I 1.57 | V 1.38 | A 1.42
G12: S 2.61 | T 2.13 | E 1.55 | L 2.67 | F 2.86 | P 1.55 | H 2.04
P6: I 1.85 | Y 2.42 | T 1.93 | V 3.02 | E 2.26 | G 2.06 | W 1.93 | K 3.13 | C 3.1
T15: P 1.52 | D 1.75 | N 2.3 | Y 1.73 | F 1.57 | E 1.48 | I 1.88
T14: K 2.3 | R 1.41 | S 2.11 | Q 2.52 | N 1.73 | D 1.27 | W 1.32
P9: I 1.89 | H 1.86 | D 2.24 | M 1.83 | T 1.73 | G 1.63 | W 2.09 | F 1.5
Q2: A 2.17 | G 1.9 | M 2 | L 1.94 | I 2.22 | C 1.44 | Y 2.2 | F 2.03 | N 2.68
Y7: G 3.29 | A 3.52 | R 3.25 | I 2.83 | D 3.76 | F 2.43 | M 2.68
L8: R 2.54 | A 1.81 | F 1.63 | N 2 | M 1.26 | D 2.55
R11: Q 1.8 | A 2.05 | W 2.68 | G 2.02 | C 2.76 | D 2 | V 1.89
C24: A 2.21 | V 1.76 | R 1.5 | I 2.03 | K 2.47 | G 2.19 | L 1.57
G20: C 1.6 | M 3.49 | T 1.71 | P 2.19 | E 1.97 | H 1.66 | F 1.53
F1: Q 3.91 | A 3.51 | R 3.57 | K 3.41 | L 3.37 | M 3.4 | V 3.16
G19: F 1.91 | L 2 | W 1.63 | T 2.28 | P 1.83 | D 2.06 | V 2.07 | N 1.77 | E 1.71 | H 2.48 | Y 2.06
S18: I 1.48 | A 1.97 | N 2.19 | H 1.57 | V 1.21 | D 2.09 | E 2.22 | K 3.05
S4: G 1.1 | A 2.11 | I 1.88 | K 1.85 | T 2.81 | C 2.64
N5: I 2.51 | C 2.6 | R 1.7 | D 2.81 | E 2.58 | T 2 | S 3.55 | L 2.04 | W 2.49 | Q 2.33 | G 1.41
G13: V 1.9 | I 1.99 | M 2.65 | W 3.33 | S 1.75 | H 2.32 | Y 1.51 | Q 2.68
A17: Y 2.11 | N 2.27 | I 1.08 | M 1.93 | C 2.24 | L 2.54 | V 3.21 | P 1.76

Variants of: B2
Test: as above
Conditions: c terminus: a fixed tail appended

Protein stability index, by site and new letter:
R5: N 3.94 | Y 3.81 | I 3.93 | T 4
A22: E 3.93 | P 3.18 | N 3.32 | I 2.59 | R 2.79 | C 2.63 | T 2.82 | L 3.2 | H 3.42
E23: V 2.3 | P 2.88 | W 2.31 | Q 2.35 | Y 2.22 | L 2.12
I12: H 3.89 | M 3.7 | S 3.82 | F 3.5 | A 3.53 | R 3.85
S2: P 3.35 | Y 2.88 | R 3.08 | H 3.01
K15: Y 2.69 | M 3.11 | V 2.42
K14: M 2.96 | T 3.34 | P 4.38 | G 3.63 | R 3.22 | I 2.71
L11: M 3.22 | N 3.6 | E 4.15
A13: Q 3.47 | I 3.3 | E 3.56 | S 3.36 | W 2.83 | M 3.12
I8: T 4.48 | K 3.64 | S 3.99 | D 4.48 | V 3.88 | C 4.06
A20: V 2.8 | H 3.66 | N 3.19 | P 3.78
K17: Q 3.5 | R 2.99 | H 3.02 | V 3.38 | F 3.15 | Y 2.84 | N 3.61
I6: F 2.83 | L 3.18 | E 4.06 | S 3.46 | T 3.58 | D 4.4 | G 4.1
I16: K 4.01 | R 3.65 | W 3.18 | P 3.81 | V 3.75 | C 3.31
L18: H 3.69 | R 3.45 | G 4.04 | Y 3.13 | A 3.62 | K 3.23 | D 4.13 | V 3.53 | F 3.38 | E 4.14 | C 3.67
N3: C 3.86 | Y 3.42 | I 3.87 | W 3.45 | L 3.46 | K 3.96 | G 3.88 | Q 4.09
E24: F 2.22 | M 2.27 | I 2.27 | V 2.48 | Q 2.95 | S 2.73 | C 3.19 | D 3.39 | K 2.98
G4: W 2.85 | Q 3.57 | I 3.18 | M 3.61 | K 3.77 | D 4.92 | L 3.48 | S 3.57
T19: E 3.88 | F 1.98 | V 2.75 | L 2.15 | I 2.12 | A 3.48 | P 3.4 | M 1.89
E21: G 2.63 | Q 3.05 | K 2.51 | R 2.95 | T 3.15 | L 2.96 | F 1.97
K9: I 2.29 | G 3.39 | Y 3.03 | E 4.03
D7: K 3.14 | T 2.97 | N 3.33 | L 3.38 | V 2.41
Q10: W 2.35 | I 2.18 | F 2.65 | A 3.35 | K 3.3 | R 2.7 | N 3.21
P1: C 2.86 | T 3.64 | H 3.24 | V 2.98 | W 2.92 | M 3.1
